These are literature values, as cited in paper PMC7134607.

Usually Kd stands for the free concentration of one partner at which half of the binding sites on the other are occupied at equilibrium, for simple one-to-one binding.

The data set deals with SARS main protease (SARS coronavirus) (UniProt P0C6X7).

As to “SARS main protease (from UniProt P0C6X7)”, the Kd was 100 µM.
